This note sets out measurements from publication PMC12368178.

Several values for one entry are separate records, joined by “and”; a condition that tells them apart may be missing. Equal entries are not always repeated.

The assay has as its target 16055 DG4 NFL trimer (HIV-1 (Indian subtype C 16055 strain)). Description: SEC + native gel or EMSA. For orientation: In EMSA bound probe runs differently from free probe, usually more slowly.

What is called stoichiometry N is a count of units in the complex or per binding partner. 16055 DG4 NFL trimer: the stoichiometry N was 3 and 6.
